Test results reported in publication PMC9482650, “Quantitative fragmentomics allow affinity mapping of interactomes” (Nature Communications, 2022).

B1: SSTR5, P35346 (peptide)
chain: ANGLMQTSKL
B2: GRIA3, P42263 (peptide)
chain: NVYGTESVKI

What was measured:
Assay in all cases: holdup assay
Design in all cases: key: below the threshold = too weak to quantify, mostly under pKd 3.1 to 4
Details in all cases: plain residues with an end cap or a label only (N-terminal biotin on a linker: ado-ado)
DFNB31_2, Q9P202 = molecular target: T1, DFNB31_2, Q9P202
T1 sequence (Q9P202 274-371, limits assumed, looked up): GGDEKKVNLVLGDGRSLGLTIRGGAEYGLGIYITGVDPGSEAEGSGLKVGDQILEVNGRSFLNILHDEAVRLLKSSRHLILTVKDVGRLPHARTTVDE

DFNB31_3, Q9P202 = molecular target: T2, DFNB31_3, Q9P202
T2 sequence (Q9P202 811-907, limits assumed, looked up): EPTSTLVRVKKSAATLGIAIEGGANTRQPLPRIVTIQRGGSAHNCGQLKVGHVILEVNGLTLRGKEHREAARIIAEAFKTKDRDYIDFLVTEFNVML

DLG3_2, Q92796 = molecular target: T3, DLG3_2, Q92796
T3 sequence (Q92796 221-321, limits assumed, looked up): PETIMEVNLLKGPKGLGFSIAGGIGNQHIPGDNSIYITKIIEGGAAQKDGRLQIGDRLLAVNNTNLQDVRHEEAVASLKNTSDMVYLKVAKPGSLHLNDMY

DLG3_3, Q92796 = molecular target: T4, DLG3_3, Q92796
T4 sequence (Q92796 374-475, limits assumed, looked up): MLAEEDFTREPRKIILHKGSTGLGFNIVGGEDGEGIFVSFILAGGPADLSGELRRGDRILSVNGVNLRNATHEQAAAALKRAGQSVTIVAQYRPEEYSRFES

DLG4_3, P78352 = molecular target: DLG4_3, P78352
FRMPD2_3, Q68DX3 = molecular target: FRMPD2_3, Q68DX3
GRIP2_4, Q9C0E4 = molecular target: GRIP2_4, Q9C0E4
HTRA2, O43464 = molecular target: HTRA2, O43464
HTRA4, P83105 = molecular target: T5, HTRA4, P83105
T5 sequence (P83105 378-476, limits assumed, looked up): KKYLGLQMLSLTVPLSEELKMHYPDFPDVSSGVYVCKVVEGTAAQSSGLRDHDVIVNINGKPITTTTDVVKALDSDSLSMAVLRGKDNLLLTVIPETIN

IL16_3, Q14005 = molecular target: IL16_3, Q14005
Inadl_1, Q8NI35 = molecular target: Inadl_1, Q8NI35
Inadl_4, Q8NI35 = molecular target: Inadl_4, Q8NI35
Inadl_5, Q8NI35 = molecular target: Inadl_5, Q8NI35
Inadl_6, Q8NI35 = molecular target: Inadl_6, Q8NI35
LAP2, Q96RT1 = molecular target: LAP2, Q96RT1
LIN7C, Q9NUP9 = molecular target: T6, LIN7C, Q9NUP9
T6 sequence (Q9NUP9 88-185, limits assumed, looked up): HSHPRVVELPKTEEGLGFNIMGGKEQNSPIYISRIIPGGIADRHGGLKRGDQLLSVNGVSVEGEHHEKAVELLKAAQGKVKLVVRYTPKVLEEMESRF

MAGI2_2, Q86UL8 = molecular target: MAGI2_2, Q86UL8
MAGI2_5, Q86UL8 = molecular target: MAGI2_5, Q86UL8
MAST1, Q9Y2H9 = molecular target: MAST1, Q9Y2H9
MPP7, Q5T2T1 = molecular target: T7, MPP7, Q5T2T1
T7 sequence (Q5T2T1 134-230, limits assumed, looked up): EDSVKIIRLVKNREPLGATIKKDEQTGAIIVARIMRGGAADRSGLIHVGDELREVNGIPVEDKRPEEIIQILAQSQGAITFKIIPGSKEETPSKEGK

NOS1, P29475 = molecular target: NOS1, P29475
PDZD2_2, O15018 = molecular target: T8, PDZD2_2, O15018
T8 sequence (O15018 329-429, limits assumed, looked up): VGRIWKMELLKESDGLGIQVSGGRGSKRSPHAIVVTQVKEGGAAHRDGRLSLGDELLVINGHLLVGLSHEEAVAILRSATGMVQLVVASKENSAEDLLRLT

PICK1, Q9NRD5 = molecular target: PICK1, Q9NRD5
PTPN13_1, Q12923 = molecular target: T9, PTPN13_1, Q12923
T9 sequence (Q12923 1088-1188, limits assumed, looked up): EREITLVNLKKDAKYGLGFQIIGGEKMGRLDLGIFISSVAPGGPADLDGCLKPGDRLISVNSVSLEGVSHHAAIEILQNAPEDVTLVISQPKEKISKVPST

RADIL, Q96JH8 = molecular target: T10, RADIL, Q96JH8
T10 sequence (Q96JH8 971-1071, limits assumed, looked up): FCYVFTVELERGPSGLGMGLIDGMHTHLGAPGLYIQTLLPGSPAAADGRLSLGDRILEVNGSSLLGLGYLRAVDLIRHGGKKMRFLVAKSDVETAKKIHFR

SCRIB_3, Q14160 = molecular target: SCRIB_3, Q14160
TX1BP3, O14907 = molecular target: T11, TX1BP3, O14907
T11 sequence (O14907 10-122, limits assumed, looked up): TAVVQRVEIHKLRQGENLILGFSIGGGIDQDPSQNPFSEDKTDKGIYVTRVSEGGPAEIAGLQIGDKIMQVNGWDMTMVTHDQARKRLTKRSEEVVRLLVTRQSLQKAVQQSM

DLG4_3, P78352, sequence (P78352 306-403): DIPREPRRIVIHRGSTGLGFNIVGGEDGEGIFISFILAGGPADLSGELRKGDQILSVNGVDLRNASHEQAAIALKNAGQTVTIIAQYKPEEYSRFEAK
FRMPD2_3, Q68DX3, sequence (Q68DX3 1073-1166): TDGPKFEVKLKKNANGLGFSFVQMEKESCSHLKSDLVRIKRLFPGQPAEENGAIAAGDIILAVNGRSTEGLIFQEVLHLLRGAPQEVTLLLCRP
NOS1, P29475, sequence (P29475 9-101): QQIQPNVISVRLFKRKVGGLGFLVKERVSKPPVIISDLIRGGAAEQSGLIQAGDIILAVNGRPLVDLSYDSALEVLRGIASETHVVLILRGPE
IL16_3, Q14005, sequence (Q14005 1107-1207): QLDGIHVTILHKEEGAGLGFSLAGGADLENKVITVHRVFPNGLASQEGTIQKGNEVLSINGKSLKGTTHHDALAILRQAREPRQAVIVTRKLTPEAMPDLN
SCRIB_3, Q14160, sequence (Q14160 999-1103): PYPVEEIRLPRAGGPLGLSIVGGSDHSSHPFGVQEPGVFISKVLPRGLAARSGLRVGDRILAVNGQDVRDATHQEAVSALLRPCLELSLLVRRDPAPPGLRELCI
Inadl_5, Q8NI35, sequence (Q8NI35 673-780): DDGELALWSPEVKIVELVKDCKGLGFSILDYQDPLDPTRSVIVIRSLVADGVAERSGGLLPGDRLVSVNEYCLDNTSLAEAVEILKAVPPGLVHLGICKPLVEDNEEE
LAP2, Q96RT1, sequence (Q96RT1 other isoform, or with tags, fused parts or gaps): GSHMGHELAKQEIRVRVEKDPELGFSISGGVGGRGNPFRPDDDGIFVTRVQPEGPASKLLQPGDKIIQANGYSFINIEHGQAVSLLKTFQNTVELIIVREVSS
Inadl_1, Q8NI35, sequence (Q8NI35 113-229): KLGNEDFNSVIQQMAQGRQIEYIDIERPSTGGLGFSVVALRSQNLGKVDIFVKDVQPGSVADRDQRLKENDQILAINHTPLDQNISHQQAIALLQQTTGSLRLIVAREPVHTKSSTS
MAGI2_5, Q86UL8, sequence (Q86UL8 915-1017): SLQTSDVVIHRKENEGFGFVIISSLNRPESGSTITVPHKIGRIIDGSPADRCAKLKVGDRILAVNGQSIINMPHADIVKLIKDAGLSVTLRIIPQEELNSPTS
MAGI2_2, Q86UL8, sequence (Q86UL8 410-522): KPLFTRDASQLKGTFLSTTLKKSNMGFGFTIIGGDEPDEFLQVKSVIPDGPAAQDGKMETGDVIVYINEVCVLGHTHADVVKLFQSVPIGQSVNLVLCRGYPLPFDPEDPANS
Inadl_6, Q8NI35, sequence (Q8NI35 1058-1167): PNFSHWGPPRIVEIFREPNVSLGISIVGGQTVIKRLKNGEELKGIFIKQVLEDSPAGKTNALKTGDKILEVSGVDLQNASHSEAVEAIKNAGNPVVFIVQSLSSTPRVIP
PICK1, Q9NRD5, sequence (Q9NRD5 17-115): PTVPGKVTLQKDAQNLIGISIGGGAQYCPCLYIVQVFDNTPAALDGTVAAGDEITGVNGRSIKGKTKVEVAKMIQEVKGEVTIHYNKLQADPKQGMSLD
GRIP2_4, Q9C0E4, sequence (Q9C0E4 446-548): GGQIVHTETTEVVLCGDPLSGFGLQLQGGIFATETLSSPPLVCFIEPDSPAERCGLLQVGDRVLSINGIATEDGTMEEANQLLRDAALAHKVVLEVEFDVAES
MAST1, Q9Y2H9, sequence (Q9Y2H9 962-1065): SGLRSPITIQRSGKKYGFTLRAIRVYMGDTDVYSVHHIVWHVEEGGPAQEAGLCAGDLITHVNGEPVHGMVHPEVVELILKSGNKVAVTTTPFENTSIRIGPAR
HTRA2, O43464, sequence (O43464 355-458): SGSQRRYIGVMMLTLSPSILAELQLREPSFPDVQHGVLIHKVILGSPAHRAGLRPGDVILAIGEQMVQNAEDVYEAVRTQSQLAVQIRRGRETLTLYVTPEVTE
Inadl_4, Q8NI35, sequence (Q8NI35 547-651): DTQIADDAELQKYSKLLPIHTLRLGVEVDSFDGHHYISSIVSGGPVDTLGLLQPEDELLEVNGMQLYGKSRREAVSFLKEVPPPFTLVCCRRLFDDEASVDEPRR

Binder	pKd (DFNB31_2, Q9P202)	pKd (DFNB31_3, Q9P202)	pKd (DLG3_2, Q92796)	pKd (DLG3_3, Q92796)	pKd (DLG4_3, P78352)	pKd (FRMPD2_3, Q68DX3)	pKd (GRIP2_4, Q9C0E4)	pKd (HTRA2, O43464)	pKd (HTRA4, P83105)	pKd (IL16_3, Q14005)	pKd (Inadl_1, Q8NI35)	pKd (Inadl_4, Q8NI35)	pKd (Inadl_5, Q8NI35)	pKd (Inadl_6, Q8NI35)	pKd (LAP2, Q96RT1)	pKd (LIN7C, Q9NUP9)	pKd (MAGI2_2, Q86UL8)	pKd (MAGI2_5, Q86UL8)	pKd (MAST1, Q9Y2H9)	pKd (MPP7, Q5T2T1)	other results
B1	below the threshold	4.22	3.75	below the threshold	below the threshold	below the threshold	below the threshold	below the threshold	3.7	below the threshold	below the threshold	below the threshold	below the threshold	below the threshold	below the threshold	below the threshold	below the threshold	below the threshold	4.63	below the threshold	pKd (NOS1, P29475): below the threshold; pKd (PDZD2_2, O15018): below the threshold; pKd (PICK1, Q9NRD5): 4.08; pKd (PTPN13_1, Q12923): below the threshold; pKd (RADIL, Q96JH8): below the threshold; pKd (SCRIB_3, Q14160): 3.5; pKd (TX1BP3, O14907): 4.11
B2	below the threshold	below the threshold	below the threshold	below the threshold	below the threshold	below the threshold	below the threshold	below the threshold	4	below the threshold	below the threshold	below the threshold	below the threshold	below the threshold	below the threshold	below the threshold	below the threshold	below the threshold	3.93	below the threshold	pKd (NOS1, P29475): 3.56; pKd (PDZD2_2, O15018): below the threshold; pKd (PICK1, Q9NRD5): below the threshold; pKd (PTPN13_1, Q12923): below the threshold; pKd (RADIL, Q96JH8): below the threshold; pKd (SCRIB_3, Q14160): below the threshold; pKd (TX1BP3, O14907): below the threshold
